The target of one data set is T1, HDAC3 (Homo sapiens, UniProt O15379).
T1 construct: expressed in transfected cells; host or cells: 293T
Briefly: HDAC3 ubiquitination, GST pull-down with Ha-UB in 293T cells. It counts as cell-based. The following applies: ligand treated (10 nM RZD, 24 hours). As for the experimental part:
Therefore, in order to understand a regulation mechanism of sLZIP in the PPARγ2 transcriptional activity by binding to the FABP4 promoter region, an effect of sLZIP on the interaction between PPARγ2 and HDAC3 was examined. For this purpose, 293T cells were transfected with GST-HDAC3, Myc-PPARγ2 and Flag-sLZIP, and were treated or not treated with 10 nM of RZD for 24 hours. Cell lysates were subjected to GST pull-down analysis using a glutathione 4B bead, and a protein complex was analyzed in SDS-PAGE, and then immunoblotted with anti-GST, anti-Myc and anti-Flag antibodies (FIG. 6A). GST-HDAC3, GST-PPARγ2, Myc-PPARγ2, Flag-sLZIP and Ha-UB were expressed in the 293T cells, and the cells were treated with 10 nM of RZD for 24 hours. Cell lysates were subjected to GST pull-down analysis (FIG. 6B). GST-PPARγ2 and Flag-sLZIP were expressed in the 293T cells and treated with 10 nM of RZD for 24 hours. Cell lysates were subjected to GST pull-down analysis, and a protein complex was analyzed in SDS-PAGE, and then immunoblotted with anti-PGC1α, anti-GST and anti-Flag antibodies (FIG. 6C).

The subject of another data set is sLZIP TG mouse embryos. Briefly: Ossification in vivo, alcian blue and alizarin red staining of sLZIP TG mouse embryos on E17.5. The following applies: E17.5, compared with wild type littermate. The text has this:
In order to generate human sLZIP transgenic (TG) mice, sLZIP genes were cloned into a pCMV-flag expression vector. The sLZIP TG mice were generated by Macrogen, Inc (Seoul, Korea). Transgenic founders were mated with wild type C57BL/6 mice to produce F1 heterozygotes. F1-F4 generations were genetically screened for transgenes at an age of 2 weeks old. The following two primers were used to amplify genomic DNA in order to identify wild type and TG mice: 5′-GGACGATGATGACAAGGACT-3′ (SEQ ID NO: 25) and 5′-GTCAGAGGAGTACATGCTGCT-3′(SEQ ID NO: 26).
Therefore, in order to characterize a potential role of sLZIP in the transcriptional activity of Runx2 by inhibiting the transcriptional activity of PPARγ2, the transcriptional activity of Runx2 was examined. For this purpose, 293T cells were temporarily transfected with Runx2 (0.5 μg), β-galactosidase (0.1 μg), 6 copies of Runx2 response elements (0.2 μg) and sLZIP at different contents (0.1 μg to 0.5 μg) (FIG. 7A). PPARγ2 (0.5 μg), β-galactosidase, Runx2, 6 copies of Runx2 response elements and sLZIP (0.5 μg) were expressed in the 293T cells (FIG. 7B). 293T cells were temporarily transfected with HDAC3 (0.5 μg), Runx2, β-galactosidase, 6 copies of Runx2 response elements and sLZIP at different contents (0.25 and 0.5 μg) (FIG. 7C). A promoter activity was measured by luciferase analysis. […]

The next data set concerns ATDC5 cells. Description: Chondrocyte differentiation marker mRNA in ATDC5 cells, RT-PCR and real-time PCR. It counts as cell-based. Conditions: sLZIP 0.1 μg to 0.5 μg, in a reaction with insulin. The protocol: According to instructions of the manufacturer, a TRIzol reagent (Invitrogen, Carlsbad, Calif.) was added to directly lyse cells in a culture dish. Accupower RT PreMix (BioNeer, Daejeon, Korea) was used to synthesize cDNA from 2 μg of total RNA. A reaction was performed for 60 minutes at 42° C. and for 5 minutes at 94° C. PCR amplification was performed using oligomers listed in Table 2 and a Hipi PCR Mix Kit (ELPIS). As an internal control group, GAPDH was amplified. A PCR product was subjected to electrophoresis in 1-2% (w/v) agarose gel containing 0.5 μg/mL ethidium bromide. A size of the PCR product was measured by comparing it with 1 kb DNA ladder marker (Invitrogen). An intensity of bands amplified according to RT-PCR was analyzed using MultiImage™ Light Cabinet (version 5.5, Alpha Innotech Corp., San Leandro, Calif.).
Real-time PCR was performed in LightCycler 480 using a SYBR Green Master Mix (Roche, Mannheim, Germany). β-actin was used as an internal control group. A target gene expression level rate with respect to β-actin was calculated using CT method. A Ct value is defined as a PCR cycle number at which a fluorescence signal reaches a fixed target threshold. Experiments were technically repeated three times for each experiment. […]
On the technique in general: Real-time PCR tracks product formation cycle by cycle.

Data set [1] can be described thus: Solubility in saline or buffer solution. It counts as physicochemical.

T1 sequence (O15379 whole entry, species assumed): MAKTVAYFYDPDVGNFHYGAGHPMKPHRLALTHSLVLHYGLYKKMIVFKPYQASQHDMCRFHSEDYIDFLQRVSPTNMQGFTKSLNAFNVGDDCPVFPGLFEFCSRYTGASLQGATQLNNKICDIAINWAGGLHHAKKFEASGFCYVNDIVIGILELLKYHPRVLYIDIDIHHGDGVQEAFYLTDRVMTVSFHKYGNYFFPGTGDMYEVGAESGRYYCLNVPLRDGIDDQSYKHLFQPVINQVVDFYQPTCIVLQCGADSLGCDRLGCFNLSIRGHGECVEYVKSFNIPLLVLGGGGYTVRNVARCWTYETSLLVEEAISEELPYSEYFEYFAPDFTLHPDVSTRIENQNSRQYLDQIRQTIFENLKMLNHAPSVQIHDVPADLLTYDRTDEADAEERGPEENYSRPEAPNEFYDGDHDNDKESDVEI

B1: sLZIP: human small leucine-zipper protein, isoform of LZIP, 354 amino acids, no transmembrane domain, GenBank FJ263669, SEQ ID NO: 1 (protein, listed as Homo sapiens)
chain: MELELDAGDQDLLAFLLEESGDLGTAPDEAVRAPLDWALPLSEVPSDWEVDDLLCSLLSPPASLNILSSSNPCLVHHDHTYSLPRETVSMDLESESCRKEGTQMTPQHMEELAEQEIARLVLTDEEKSLLEKEGLILPETLPLTKTEEQILKRVRRKIRNKRSAQESRRKKKVYVGGLESRVLKYTAQNMELQNKVQLLEEQNLSLLDQLRKLQAMVIEISNKTSSSSMYSSDTRGSLPAEHGVLSRQLRALPSEDPYQLELPALQSEVPKDSTHQWLDGSDCVLQAPGNTSCLLHYMPQAPSAEPPLEWPFPDLFSEPLCRGPILPLQANLTRKGGWLPTGSPSVILQDRYSG
Regarding B1, in the data set with HDAC3, the HDAC3 ubiquitination result is recorded as “inhibited HDAC3 ubiquitination”. Besides, in the data set with sLZIP TG mouse embryos, the “ossification of skull and limb” value is given as “further promoted ossification”. Moreover, the “expression of chondrocyte differentiation marker genes (Sox9, ColIIIA1)” value in the data set with ATDC5 cells was “no influence”. The solubility entry in data set [1] is on record as “very soluble”.

Values taken from patent publication US10456446B2, “Use of human small leucine zipper protein in osteogenesis procedure” (Korea University Research and Business Foundation, priority 2013, dated 2019).
